Source: US12642766B2, “EDB-FN as biomarker of cancer and/or brain disease and nanodrug delivery system targeting same” (KOREA UNIVERSITY RESEARCH AND BUSINESS FOUNDATION, priority 2020, dated 2026)
Ends that are not written are not given here.

Assays:
EDB-FN [1] = target: EDB-FN (Homo sapiens, UniProt P02751); conditions: read-out: affinity of binding to EDB-FN; cited from earlier work
EDB-FN [2] = assay: siRNA-mediated EDB-FN knockdown confirmed by qRT-PCR; format: cell-based, human; conditions: U87MG cells; GAPDH internal control; control siRNA 1.00±0.08
Procedure: Cells were collected, and ribonucleic acid (RNA) was extracted with RiboEx using an RNA isolation kit (GeneAll, Seoul, Republic of Korea). Complementary DNA (cDNA) was synthesized by reverse transcription using a total of 1 μg of RNA from each sample. As a result, the following genes were estimated: EDB-FN gene (forward primer: 5′-[…]-3′; reverse primer: 5′-[…]-3′); glyceraldehyde 3-phosphate dehydrogenase) gene (forward primer: 5′-[…]-3′; reverse primer: 5′-[…]-3′. The polymerase chain reaction protocol was as follows: initial denaturation at 94° C. for 5 min; 30 repetitions of denaturation at 94° C. for 1 min, primer annealing at 55° C. for 1 min, and extension at 72° C. for 2 min; and final extension at 72° C. for 7 min 1 μg of cDNA was added to 4 μL of ultrapure water, 5 μL of SYBR Green real-time mixture (Takara, Tokyo, Japan) was added before performing a real-time polymerase chain reaction (Qiagen, Tokyo, Japan). The messenger RNA (mRNA) level of each gene was quantified using the 2^−ΔΔ^Ct method and normalized with the messenger RNA of glyceraldehyde 3-phosphate dehydrogenase.
EDB-FN-specific siRNA and scrambled control siRNA were purchased from Bioneer (Daejeon, Republic of Korea). The target sequence of EDB-FN siRNA used for RNA interference is as follows: sense; […], antisense; […]. […] Transfection efficacy was analyzed after 48 hours.

EDB-FN (Homo sapiens, UniProt P02751), sequence (P02751 32-2477): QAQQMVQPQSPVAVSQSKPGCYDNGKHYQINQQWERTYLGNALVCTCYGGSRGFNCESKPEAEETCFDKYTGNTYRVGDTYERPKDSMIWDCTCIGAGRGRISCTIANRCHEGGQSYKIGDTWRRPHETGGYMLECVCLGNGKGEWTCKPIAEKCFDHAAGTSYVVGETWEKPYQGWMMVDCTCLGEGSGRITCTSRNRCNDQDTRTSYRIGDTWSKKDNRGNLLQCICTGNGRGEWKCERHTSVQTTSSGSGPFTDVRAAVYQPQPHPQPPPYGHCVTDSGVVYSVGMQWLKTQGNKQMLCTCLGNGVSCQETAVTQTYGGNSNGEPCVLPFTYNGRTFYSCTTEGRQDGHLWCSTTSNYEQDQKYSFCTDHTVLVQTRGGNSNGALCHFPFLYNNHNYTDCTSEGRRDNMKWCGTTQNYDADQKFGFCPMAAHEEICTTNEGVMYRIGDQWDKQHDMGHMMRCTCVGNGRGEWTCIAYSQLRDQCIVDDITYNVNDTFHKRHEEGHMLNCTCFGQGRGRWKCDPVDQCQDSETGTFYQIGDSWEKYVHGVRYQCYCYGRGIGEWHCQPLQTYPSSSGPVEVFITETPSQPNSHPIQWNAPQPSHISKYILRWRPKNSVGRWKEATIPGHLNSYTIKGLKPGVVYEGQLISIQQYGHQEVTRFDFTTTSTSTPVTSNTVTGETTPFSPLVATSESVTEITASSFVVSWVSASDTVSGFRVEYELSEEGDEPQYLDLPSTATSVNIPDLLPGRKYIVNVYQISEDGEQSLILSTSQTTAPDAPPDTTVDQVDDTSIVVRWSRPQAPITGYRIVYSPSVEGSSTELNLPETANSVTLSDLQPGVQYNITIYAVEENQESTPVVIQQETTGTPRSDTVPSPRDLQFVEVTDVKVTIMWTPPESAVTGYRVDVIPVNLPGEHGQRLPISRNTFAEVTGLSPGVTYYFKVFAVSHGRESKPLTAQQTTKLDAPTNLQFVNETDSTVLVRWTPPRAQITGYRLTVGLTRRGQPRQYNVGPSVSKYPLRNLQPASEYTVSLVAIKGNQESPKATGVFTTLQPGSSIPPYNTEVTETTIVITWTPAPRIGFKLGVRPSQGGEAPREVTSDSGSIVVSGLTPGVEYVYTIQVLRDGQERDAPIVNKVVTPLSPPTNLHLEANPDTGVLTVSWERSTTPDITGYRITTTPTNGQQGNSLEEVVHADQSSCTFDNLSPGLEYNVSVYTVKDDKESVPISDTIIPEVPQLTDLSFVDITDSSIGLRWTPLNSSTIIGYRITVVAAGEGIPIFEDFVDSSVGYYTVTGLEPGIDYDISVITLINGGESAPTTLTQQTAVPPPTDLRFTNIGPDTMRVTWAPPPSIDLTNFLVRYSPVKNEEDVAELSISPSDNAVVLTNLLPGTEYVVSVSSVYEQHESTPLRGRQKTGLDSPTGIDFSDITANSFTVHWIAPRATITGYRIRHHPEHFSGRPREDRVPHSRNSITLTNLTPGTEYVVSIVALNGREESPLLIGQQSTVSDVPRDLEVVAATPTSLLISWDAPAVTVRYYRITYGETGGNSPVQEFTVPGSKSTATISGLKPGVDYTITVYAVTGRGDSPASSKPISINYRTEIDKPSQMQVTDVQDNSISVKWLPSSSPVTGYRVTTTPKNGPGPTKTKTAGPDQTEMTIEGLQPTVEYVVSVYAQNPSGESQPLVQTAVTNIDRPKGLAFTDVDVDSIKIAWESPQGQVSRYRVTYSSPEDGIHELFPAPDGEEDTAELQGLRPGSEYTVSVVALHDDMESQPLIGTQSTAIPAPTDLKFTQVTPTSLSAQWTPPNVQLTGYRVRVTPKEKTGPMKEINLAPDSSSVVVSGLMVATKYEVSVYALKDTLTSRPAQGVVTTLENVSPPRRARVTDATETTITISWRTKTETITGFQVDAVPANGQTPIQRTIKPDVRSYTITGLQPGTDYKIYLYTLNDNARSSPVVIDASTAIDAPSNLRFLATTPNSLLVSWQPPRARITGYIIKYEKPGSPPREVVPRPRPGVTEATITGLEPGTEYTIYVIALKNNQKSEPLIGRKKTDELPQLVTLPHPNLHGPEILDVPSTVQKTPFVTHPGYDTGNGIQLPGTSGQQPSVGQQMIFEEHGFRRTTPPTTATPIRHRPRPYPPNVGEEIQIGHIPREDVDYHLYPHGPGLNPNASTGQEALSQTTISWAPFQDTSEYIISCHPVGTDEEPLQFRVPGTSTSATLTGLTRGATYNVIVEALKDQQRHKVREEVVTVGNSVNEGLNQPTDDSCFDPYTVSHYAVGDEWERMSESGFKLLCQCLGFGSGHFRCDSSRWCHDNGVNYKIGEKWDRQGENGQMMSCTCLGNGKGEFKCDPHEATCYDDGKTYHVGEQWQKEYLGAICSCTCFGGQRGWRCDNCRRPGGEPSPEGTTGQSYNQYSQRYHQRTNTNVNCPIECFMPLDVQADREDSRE

## N′-CSSPIQGSWTWENGK(C)WTWGIIRLEQ-C′ (CSSPIQGSWTWENGK(Cys)WTWGIIRLEQ; listed as Homo sapiens) [APTEDB, EDB-FN-specific aptamer-like peptide (aptide)]
EDB-FN [1]
  Kd: < 0.1 µM

## EDB-FN siRNA: EDB-FN-specific siRNA; sense ACAGUCCCAGAUCAUGGAG, antisense CUCCAUGAUCUGGGACUGU (chemistry not given here)
EDB-FN [2]
  EDB-FN expression (qRT-PCR): 0.45±0.01
